Where two headings read alike, the source gives them in different places.
B1: mce 1: GST-tagged individual mce domain 1 of V. parahaemolyticus MAM7 (SEQ ID NO: 5) (protein, listed as Vibrio parahaemolyticus)
chain: AGQRVQIYFSDAAGLVAGRTTIRYQGLEVGMVRDINLSEDLGSIYVDADIYPEATKLLNDKTRFWLVKPTASLTGVSGLDALVSGNYISIQPG
modifications: GST tag
B2: mce 2: GST-tagged individual mce domain 2 of V. parahaemolyticus MAM7 (SEQ ID NO: 6) (protein, listed as Vibrio parahaemolyticus)
chain: QGLNIKLKSRDLGGVSIGSQIVYKKIPIGAVYSYQLDEDAKSITIQANIQEQYRHIINDRSRFWNVSGIGASIGFEGVDVRLESMSALLGG
modifications: GST tag
B3: mce 7: GST-tagged individual mce domain 7 of V. parahaemolyticus MAM7 (SEQ ID NO: 11) (protein, listed as Vibrio parahaemolyticus)
chain: EGVMFTLQSEQRGSVQVGTPVLYRQMEVGQVTDVRLGEFADRVVSTIKIKPEYAYLVRQNSVFWNVSGVDVSIGITGANIKAGTIDSLVRG
modifications: GST tag
B4: mce 6: GST-tagged individual mce domain 6 of V. parahaemolyticus MAM7 (SEQ ID NO: 10) (protein, listed as Vibrio parahaemolyticus)
chain: FGRVISLETDGTQEVLKGMPIEYQGVKVGEVTLVVPNFRRNLVEVTARILPEYVENIAVEGTHFWLTEPEIGLGGVKNLGALVSKSISVEPG
modifications: GST tag
B5: mce 5: GST-tagged individual mce domain 5 of V. parahaemolyticus MAM7 (SEQ ID NO: 9) (protein, listed as Vibrio parahaemolyticus)
chain: GSKTLMLFASELPPISKGSPLLYRNLPVGNVSDFHLVDGGVLIKATIENRFAYLVTPQTVFWNRSGIEIDASLSGVSVKAHPLKSLIEG
modifications: GST tag
B6: MAM7: recombinant MBP-tagged V. parahaemolyticus multivalent adhesion molecule with seven mce domains in tandem (SEQ ID NO:1) (protein, listed as Vibrio parahaemolyticus)
chain: MSDQNNSQTSYVPDVKRSKGISPLWLLPILTMVLAGWLVVKSIHDAGQRVQIYFSDAAGLVAGRTTIRYQGLEVGMVRDINLSEDLGSIYVDADIYPEATKLLNDKTRFWLVKPTASLTGVSGLDALVSGNYISIQPGDGQEFETTFHALDSAPTDLRVSQGLNIKLKSRDLGGVSIGSQIVYKKIPIGAVYSYQLDEDAKSITIQANIQEQYRHIINDRSRFWNVSGIGASIGFEGVDVRLESMSALLGGAIAVDSPDDGEPVEENTEFRLYKDLKTAGRGIAIKIALPDDNKVSSEGAPIMYRGIEIGQVTDLSLSEGREVILASAAIQPAFSDMLTTGTRFVLEEAKVSLSGVENIANLVRGNFLTIVPGDGERSRRFTAIRKNVFNQQQEKSIAIRLISDNSFGLDSGANVLYKGIVVGSIINVGLVDEKKQTKHEVFMDVLIDHEYKHLIKSNNRFYVTGSASAELTESGLSVTVPPAKQLLTGSISFVSEGSESIQKEYQLFQNESLAELAQYNKTGSKTLMLFASELPPISKGSPLLYRNLPVGNVSDFHLVDGGVLIKATIENRFAYLVTPQTVFWNRSGIEIDASLSGVSVKAHPLKSLIEGGIAFDSVPGVENKVGERWKLYADQQKARKFGRVISLETDGTQEVLKGMPIEYQGVKVGEVTLVVPNFRRNLVEVTARILPEYVENIAVEGTHFWLTEPEIGLGGVKNLGALVSKSISVEPGNGKAKFDFQLEKGFDRVEGVMFTLQSEQRGSVQVGTPVLYRQMEVGQVTDVRLGEFADRVVSTIKIKPEYAYLVRQNSVFWNVSGVDVSIGITGANIKAGTIDSLVRGGIAFSTPEQSQIPPAAKRGHSFYLYPRADESWVQWRTPIPKP
modifications: MBP tag
B7: mce 3: GST-tagged individual mce domain 3 of V. parahaemolyticus MAM7 (SEQ ID NO: 7) (protein, listed as Vibrio parahaemolyticus)
chain: RGIAIKIALPDDNKVSSEGAPIMYRGIEIGQVTDLSLSEGREVILASAAIQPAFSDMLTTGTRFVLEEAKVSLSGVENIANLVRGNFLTIVPG
modifications: GST tag
B8: mce 4: GST-tagged individual mce domain 4 of V. parahaemolyticus MAM7 (SEQ ID NO: 8) (protein, listed as Vibrio parahaemolyticus)
chain: SIAIRLISDNSFGLDSGANVLYKGIVVGSIINVGLVDEKKQTKHEVFMDVLIDHEYKHLIKSNNRFYVTGSASAELTESGLSVTVP
modifications: GST tag

Tests used:
[1] = test system: HeLa cells; format: cell-based; details: 500 μM heparin from intestinal mucosa
[2] = Liposome association assay; format: binding; details: for decrease of binding to PA-containing liposomes (apparent affinity): individual GST-mce domains, 1-80 mol % PA, densitometry, relative to high binding mce domains
Description: PBS-buffered liposomes were prepared from 1,2-Dioleoyl-sn-glycero-3-phosphocholine (PC) or mixtures of PC and 1,2-dioleoyl-sn-glycero-3-phosphate (PA) (both Avanti Polar Lipids Inc.) as described previously (Selyunin et al., 2011), but using PBS as buffer. 300 μg liposomes were incubated with 100 μg MBP-MAM protein in PBS for one hour at 22° C. Mixtures were centrifuged at 100 000×g, 4° C. for one hour and both pellet and supernatant fractions were separated by SDS-PAGE and proteins were detected by Coomassie staining.
Binding of GST and GST-mce constructs to liposomes were carried out as described in the literature (Krachler et al., 2011). 300 μg liposomes containing PC alone or 1-80 mol % PA were incubated with 100 μg GST and GST-mce proteins in PBS for one hour at 22° C. Mixtures were centrifuged at 100,000×g, 4° C. for one hour and both pellet and supernatant fractions were separated by SDS-PAGE and proteins detected by Coomassie staining Band intensities were determined using the gel analysis software UN-SCAN-IT (Silk Scientific Inc.) and intensities of pellet samples (% bound) were expressed as fraction of total intensities (supernatant and pellet samples combined).

[3] = Pull-down of liposomes (50 mol % PA, 50 mol % PC) on immobilized GST-mce domains; format: binding; details: 50 mol % PA and 50 mol % PC, molybdophosphoric acid assay
Description: Liposomes in load, flowthrough and eluate fractions were quantified using the method of Worth an Wright (1977). Briefly, samples were extracted with a mixture of chloroform and methanol, centrifuged and molybdophosphoric acid (Sigma) was added to the organic phase. Samples were centrifuged and the aqueous phase removed. Metol and sodium bisulfate were added to reduce the organic phase and the aqueous phase was removed again following centrifugation. The amount of phospholipid was determined by measuring absorbance at 680 nm and expressed as fraction of the amount detected in loaded fractions.
Although the inventors had previously shown that MAM1 is sufficient to bind to phosphatidic acid, it was unclear how the other mce domains contributed to phosphatidic acid binding in the absence of fibronectin. The inventors tested all seven individual mce domains (mce1-mce7) for phosphatidic acid binding using liposome association assays. Proteins were incubated with liposomes containing a mixture of PC and increasing amounts (1-80 mol %) of PA, followed by separation of liposome-bound and un-bound fractions by ultracentrifugation. All fractions were analyzed by SDS-PAGE (data not shown) followed by densitometry (FIG. 18A). […] When the inventors analyzed the mce domains of MAM7 for overall charge, they found only minor differences between individual domains. When they looked at charge distribution, however, the inventors observed that several basic residues that are otherwise well conserved between individual domains are mutated in mce 6. These include two residues which are lysines in mce 2, the strongest binding mce domain, but a serine and glutamine in mce 6, respectively, and a well conserved arginine which is replaced by a histidine in mce 6 (FIG. 18D). […]. (FIG. 18B and data not shown). […] GST-mce proteins were immobilized and incubated with liposomes. Bound liposomes were quantified using a molybdophosphoric acid assay. […]

[4] = test system: V. parahaemolyticus POR1; assay: BL21 expressing MAM constructs blocking POR1 attachment and POR1-mediated cytotoxicity; details: construct expressed on E. coli BL21, identical multiplicity of infection
[5] = test system: trypsinized cells; assay: Fluorescence attachment assay of labeled MAM7 on trypsinized cells; format: binding; details: cells treated with trypsin
Description: HeLa cells were cultured in sterilized Corning costar 96 well plates (15 000 cells/well) for 16 hours prior to experiments. ALEXAFLUOR®-labeled (fluorescent dye) proteins were diluted into PBS to give final concentrations of 0.1-100 μM and incubated with cells washed with PBS for 1 hour at 37° C. Initial fluorescence and fluorescence output were measured on a plate reader (λexcitation 485 nm, λemission 520 nm) prior to and following three washes with PBS, respectively. Data was expressed as % bound fluorescence and corrected for values determined for MBP alone. Levels of bound protein were blotted as a function of protein concentration and data were fit to a single-site binding model using Sigma Plot. For fluorescence attachment assays on trypsinized cells, cells were detached from the culture dish by trypsinization, which was stopped by adding DMEM after 5 minutes. Cells were adjusted to 600,000/ml in PBS and incubated with 100 μM labeled MBP-MAM7 or MBP in PBS for 30 minutes at 37° C. Fluorescence of the cell suspension was measured before and after extensive washing with PBS as described above.
Attachment assays with live bacteria or purified labeled protein were carried out as described (Krachler et al., 2011). […]

[6] = test system: HeLa cells; assay: Fluorescence attachment assay: saturation binding of labeled MBP-MAM proteins to HeLa cells
[7] = Lipid overlay assay; format: binding; details: MBP-MAM proteins
Description: Pre-spotted PIPstrips™ (Echelon Biosciences Inc.) were incubated in T-TBS containing 5% dry milk powder for one hour at 22° C. MBP-MAM proteins were diluted into blocking buffer to give a final concentration of 10 μM and incubated with the PIP strip for one hour at 22° C. Strips were washed with T-TBS three times for 10 minutes each and incubated with His antibody (QIAGEN) diluted 1:1000 into blocking buffer at 22° C. for one hour. Strips were washed three times with T-TBS and incubated with anti-mouse HRP-conjugated secondary antibody (GE Healthcare) diluted 1:5000 into blocking buffer for 1 hour at 22° C. After three more washes, bound proteins were detected using the ECL plus detection system (GE Healthcare).

Row | Molecule | decrease of binding to PA-containing liposomes (apparent affinity) [2] | binding of liposomes to immobilized GST-mce proteins [3] | other results
1 | heparin | – | – | BL21-MAM7 remaining attached [1]: ~40%
2 | B1 | bound equally well | strong binding | –
3 | B2 | bound equally well | strong binding | –
4 | B3 | ~20 fold | strong binding | –
5 | B4 | more than 100 fold | weaker binding | –
6 | B5 | ~6 fold | weaker binding | –
7 | B6 | – | – | effect on attachment of POR1 and pathogen-mediated cytotoxicity [4]: significantly decreased; reduction of the number of MAM7 molecules on cells [5]: over 100 fold; Kd ([6]; intact host cells, read-out: apparent KD for intact cells): 200 nM; Kd ([6]; saturation binding, ALEXAFLUOR-labeled MBP-MAM proteins, cultivated HeLa cells, read-out: Equilibrium dissociation constants (KD values)): 200 ± 100 nM; PA content of liposomes at which binding was seen ([2]; MBP-MAM proteins, PC/PA liposomes): 1 mol %; binding to PA in lipid overlay assay [7]: bound to PA
8 | B7 | bound equally well | strong binding | –
9 | B8 | bound equally well | strong binding | –
